This is an account of results in paper doi:10.1101/2025.08.27.672506.

This assay addresses wild-type ectodomain of HA from A/Malaysia/1706215/2007 (H1N1) (influenza A virus A/Malaysia/1706215/2007 (H1N1)). The assay is described as follows: SEC. (In general: SEC sorts molecules by how far they enter the pores of the column.)

“wild-type ectodomain of HA from A/Malaysia/1706215/2007 (H1N1) (domain or fragment)”: the stoichiometry N turned out to be 3.

Usually stoichiometry N stands for a count of units in the complex or per binding partner.
